The text below walks through data of patent US20240124593A1.

The assay deals with human FcRn (human) (UniProt P55899). The assay is described as follows: SPR Biacore 3000, antibody immobilised on CM5, hFcRn analyte, pH 7.5, 25 C, 1:1 fit. (Surface plasmon resonance follows binding to a sensor surface in real time, without labels.)

pKd: −log10 of the molar value.

What is called pKd is the Kd on a negative log10 scale, so that one unit is a factor of ten.

human FcRn (human), sequence (P55899 24-297 limits assumed, chain 1 of 2): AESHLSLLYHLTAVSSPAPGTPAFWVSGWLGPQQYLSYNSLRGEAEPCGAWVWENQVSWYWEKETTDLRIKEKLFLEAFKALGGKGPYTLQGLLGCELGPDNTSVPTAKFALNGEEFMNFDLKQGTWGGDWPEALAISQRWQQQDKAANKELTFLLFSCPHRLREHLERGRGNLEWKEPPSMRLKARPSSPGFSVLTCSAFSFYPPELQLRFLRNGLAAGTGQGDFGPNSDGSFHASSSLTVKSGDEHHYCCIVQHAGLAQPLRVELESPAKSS
human FcRn (human), sequence (b2m, as listed by the source limits assumed, chain 2 of 2): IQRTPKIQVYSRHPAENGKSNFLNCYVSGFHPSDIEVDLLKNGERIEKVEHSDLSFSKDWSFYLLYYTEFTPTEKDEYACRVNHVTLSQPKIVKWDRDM

Take DX-2504 (antibody): the pKd was 8.72.
